Measurements reported in US20030119169A1.
No end group written: not given here.

Target: T1, CPP32, bacterially expressed recombinant active enzyme (human), P42574
T1 chain: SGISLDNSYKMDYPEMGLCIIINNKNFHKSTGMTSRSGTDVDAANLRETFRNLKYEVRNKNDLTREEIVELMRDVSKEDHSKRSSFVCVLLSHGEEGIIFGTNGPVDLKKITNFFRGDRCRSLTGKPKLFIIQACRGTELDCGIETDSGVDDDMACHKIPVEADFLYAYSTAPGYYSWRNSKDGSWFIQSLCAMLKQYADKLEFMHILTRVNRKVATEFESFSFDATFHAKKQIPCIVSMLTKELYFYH
Experiment: inhibition of hydrolysis of 10 µM DEVD-AMC, continuous fluorometric assay, bacterial lysate, 30 min preincubation
Conditions: remark: other sources report otherwise

## YVAD-aldehyde [YVAD aldehyde]
  Ki: 8.5 µM
